From US20050282743A1, “Molecular interactions in cells” (Arbor Vita Corporation, priority 2001, published 2005)

T1: GST-PTPL1 PDZ domain 4 (Homo sapiens (Human)), Q12923
T1 chain: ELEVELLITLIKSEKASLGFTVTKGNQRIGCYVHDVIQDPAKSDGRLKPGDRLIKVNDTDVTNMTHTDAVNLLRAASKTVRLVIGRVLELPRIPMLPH

T2: GST-KIAA0807(S) PDZ domain 1 (Homo sapiens (Human)), Q6P0Q8
T2 chain: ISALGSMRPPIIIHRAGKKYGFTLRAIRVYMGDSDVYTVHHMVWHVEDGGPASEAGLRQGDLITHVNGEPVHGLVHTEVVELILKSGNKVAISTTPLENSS

T3: GST-APXL-1 PDZ domain 1 (Homo sapiens (Human)), Q13796
T3 chain: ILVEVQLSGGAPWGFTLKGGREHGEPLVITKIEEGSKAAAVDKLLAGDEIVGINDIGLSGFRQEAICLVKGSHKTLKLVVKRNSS

T4: GST-MINT1 PDZ domains 1, 2, Q02410
T4 chain: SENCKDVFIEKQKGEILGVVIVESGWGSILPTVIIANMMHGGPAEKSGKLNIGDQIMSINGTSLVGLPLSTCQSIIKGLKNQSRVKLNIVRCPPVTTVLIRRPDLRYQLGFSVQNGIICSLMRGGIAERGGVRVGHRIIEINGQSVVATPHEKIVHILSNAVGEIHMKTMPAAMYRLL

T5: GST-X-11 beta PDZ domain 2 (Rattus norvegicus (Rat)), O35431
T5 chain: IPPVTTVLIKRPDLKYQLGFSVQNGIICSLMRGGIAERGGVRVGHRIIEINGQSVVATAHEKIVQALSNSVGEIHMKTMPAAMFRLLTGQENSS

T6: GST-MINT1 PDZ domain 2 (Mus musculus (Mouse)), B2RUJ5
T6 chain: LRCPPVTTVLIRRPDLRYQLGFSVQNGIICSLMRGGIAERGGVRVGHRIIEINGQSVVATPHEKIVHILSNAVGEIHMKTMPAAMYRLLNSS

T7: GST-MUPP1 PDZ domain 10 (Homo sapiens (Human)), O75970
T7 chain: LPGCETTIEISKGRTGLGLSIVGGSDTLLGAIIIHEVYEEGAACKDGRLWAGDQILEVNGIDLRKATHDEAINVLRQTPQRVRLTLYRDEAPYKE

T8: GST-ENIGMA PDZ domain 1 (Homo sapiens (Human)), Q9NR12
T8 chain: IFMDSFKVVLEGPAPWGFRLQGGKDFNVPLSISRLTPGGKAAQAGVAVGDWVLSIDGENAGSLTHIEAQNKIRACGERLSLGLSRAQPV

T9: GST-INADL PDZ domain 8 (Homo sapiens (Human)), Q8NI35
T9 chain: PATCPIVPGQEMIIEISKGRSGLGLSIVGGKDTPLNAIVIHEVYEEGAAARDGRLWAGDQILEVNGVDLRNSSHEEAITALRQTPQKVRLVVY

T10: GST-MUPP1 PDZ domain 13 (Homo sapiens (Human)), O75970
T10 chain: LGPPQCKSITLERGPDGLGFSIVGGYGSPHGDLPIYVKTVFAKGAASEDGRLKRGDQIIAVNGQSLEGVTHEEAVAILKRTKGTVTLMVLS

T11: GST-Outer Membrane PDZ domain 1 (Homo sapiens (Human)), P57105
T11 chain: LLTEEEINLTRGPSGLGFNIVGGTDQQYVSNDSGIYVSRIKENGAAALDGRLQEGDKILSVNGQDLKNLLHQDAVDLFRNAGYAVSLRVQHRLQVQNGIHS

T12: GST-PTPL1 PDZ domain 2 (Homo sapiens (Human)), Q12923
T12 chain: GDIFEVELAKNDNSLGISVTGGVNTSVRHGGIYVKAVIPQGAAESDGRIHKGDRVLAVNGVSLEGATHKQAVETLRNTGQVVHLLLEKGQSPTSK

T13: GST-AIPC PDZ domain 1 (Homo sapiens (Human)), O15018
T13 chain: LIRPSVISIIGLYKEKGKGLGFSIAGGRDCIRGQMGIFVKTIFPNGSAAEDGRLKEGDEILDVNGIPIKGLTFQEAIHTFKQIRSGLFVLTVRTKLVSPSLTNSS

T14: GST-KIAA1634 PDZ domain 2 (Homo sapiens (Human)), Q5TCQ9
T14 chain: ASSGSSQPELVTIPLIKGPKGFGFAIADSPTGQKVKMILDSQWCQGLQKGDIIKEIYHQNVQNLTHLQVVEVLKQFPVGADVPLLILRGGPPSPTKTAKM

T15: GST-DLG1 PDZ domain 2 (Homo sapiens), Q12959
T15 chain: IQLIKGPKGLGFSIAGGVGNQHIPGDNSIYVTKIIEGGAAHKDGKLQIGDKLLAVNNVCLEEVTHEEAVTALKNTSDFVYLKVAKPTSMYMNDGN

T16: GST-NeDLG PDZ domain 2 (Rattus norvegicus (Rat)), Q62936
T16 chain: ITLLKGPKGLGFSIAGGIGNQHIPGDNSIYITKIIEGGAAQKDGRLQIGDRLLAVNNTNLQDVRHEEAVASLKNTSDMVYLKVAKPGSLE

T17: GST-FLJ 10324 PDZ domain 1 [GST: P08515]
T17 chain: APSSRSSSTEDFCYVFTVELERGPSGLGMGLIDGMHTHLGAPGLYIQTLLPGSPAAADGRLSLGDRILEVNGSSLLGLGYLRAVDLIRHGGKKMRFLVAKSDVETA

T18: GST-NeDLG PDZ domains 1, 2, Q92796
T18 chain: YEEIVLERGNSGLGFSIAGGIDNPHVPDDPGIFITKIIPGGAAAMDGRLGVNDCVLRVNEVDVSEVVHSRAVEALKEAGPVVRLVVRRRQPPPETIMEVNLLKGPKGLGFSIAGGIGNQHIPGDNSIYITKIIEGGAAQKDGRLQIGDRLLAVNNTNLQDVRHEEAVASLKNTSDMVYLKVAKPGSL

T19: GST-ZO-2 PDZ domain 2 (Homo sapiens (Human)), Q9UDY2
T19 chain: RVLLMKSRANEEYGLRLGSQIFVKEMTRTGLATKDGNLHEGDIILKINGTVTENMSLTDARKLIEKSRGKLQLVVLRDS

T20: GST-ZO-1 PDZ domain 2 (Rattus norvegicus (Rat)), A0A0G2
T20 chain: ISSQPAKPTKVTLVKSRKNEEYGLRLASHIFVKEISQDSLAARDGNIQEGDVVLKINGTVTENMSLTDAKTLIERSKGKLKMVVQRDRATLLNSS

T21: GST-DLG2 PDZ domain 2 (Homo sapiens (Human)), Q15700
T21 chain: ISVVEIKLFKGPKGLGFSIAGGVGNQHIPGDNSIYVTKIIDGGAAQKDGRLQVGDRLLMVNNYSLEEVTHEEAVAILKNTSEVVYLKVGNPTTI

T22: GST-HEMBA 1003117 PDZ domain 1 (Homo sapiens (Human)), Q96JH8
T22 chain: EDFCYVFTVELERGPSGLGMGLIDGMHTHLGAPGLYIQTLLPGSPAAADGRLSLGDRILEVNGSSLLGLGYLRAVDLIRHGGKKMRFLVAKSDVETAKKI

T23: GST-ZO-2 PDZ domain 1 (Homo sapiens (Human)), Q9UDY2
T23 chain: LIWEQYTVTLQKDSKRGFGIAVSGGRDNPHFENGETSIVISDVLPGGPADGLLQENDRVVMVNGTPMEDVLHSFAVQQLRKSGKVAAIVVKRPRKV

T24: GST-AF6 PDZ domain 1 (Homo sapiens (Human)), P55196
T24 chain: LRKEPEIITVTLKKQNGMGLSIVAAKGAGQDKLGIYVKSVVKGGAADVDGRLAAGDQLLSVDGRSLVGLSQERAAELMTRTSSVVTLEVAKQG

T25: GST-TIP1 PDZ domain 1 (Table 9 insert) (Homo sapiens (Human)), O14907
T25 chain: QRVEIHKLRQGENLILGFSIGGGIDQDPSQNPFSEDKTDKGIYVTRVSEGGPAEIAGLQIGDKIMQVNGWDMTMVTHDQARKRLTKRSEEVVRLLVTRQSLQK

T26: GST-MUPP1 PDZ domain 11 (Homo sapiens (Human)), O75970
T26 chain: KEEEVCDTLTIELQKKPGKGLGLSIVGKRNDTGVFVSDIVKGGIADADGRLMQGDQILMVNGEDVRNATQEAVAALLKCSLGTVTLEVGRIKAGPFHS

T27: GST-ZO-1 PDZ domain 1 (Rattus norvegicus (Rat)), A0A0G2
T27 chain: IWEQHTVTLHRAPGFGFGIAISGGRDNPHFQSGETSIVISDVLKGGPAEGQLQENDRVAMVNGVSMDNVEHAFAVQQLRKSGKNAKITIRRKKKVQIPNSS


How the values were obtained:
Assay in all cases: G' assay
[1] = molecular target: T1, GST-PTPL1 PDZ domain 4 (Homo sapiens …)
[2] = molecular target: T2, GST-KIAA0807(S) PDZ domain 1 (Homo …)
[3] = molecular target: GST-KIAA807 [GST: P08515]
Chain of GST-KIAA807 [GST: P08515] (P08515 whole entry, the tested form may be a part): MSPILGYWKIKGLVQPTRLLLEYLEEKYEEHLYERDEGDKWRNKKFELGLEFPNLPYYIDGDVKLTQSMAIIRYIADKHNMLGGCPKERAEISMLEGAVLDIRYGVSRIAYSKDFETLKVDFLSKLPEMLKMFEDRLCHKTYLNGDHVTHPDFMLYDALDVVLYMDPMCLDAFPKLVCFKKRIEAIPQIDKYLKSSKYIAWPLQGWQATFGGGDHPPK

[4] = molecular target: T3, GST-APXL-1 PDZ domain 1 (Homo sapiens …)
[5] = molecular target: T4, GST-MINT1 PDZ domains 1, 2, Q02410
[6] = molecular target: T5, GST-X-11 beta PDZ domain 2 (Rattus …)
[7] = molecular target: T6, GST-MINT1 PDZ domain 2 (Mus musculus …)
[8] = molecular target: T7, GST-MUPP1 PDZ domain 10 (Homo sapiens …)
[9] = molecular target: GST-BAI-1 Associated Protein PDZ domain 4 (Homo sapiens (Human)), Q96QZ7
Chain of GST-BAI-1 Associated Protein PDZ domain 4 (Homo sapiens (Human)), Q96QZ7 (Q96QZ7 other isoform, or with tags, fused parts or gaps): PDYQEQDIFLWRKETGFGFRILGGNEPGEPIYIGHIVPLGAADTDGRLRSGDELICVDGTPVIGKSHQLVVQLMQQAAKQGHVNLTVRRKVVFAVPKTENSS

[10] = molecular target: T8, GST-ENIGMA PDZ domain 1 (Homo sapiens …)
[11] = molecular target: GST-BAI-1 Associated Protein PDZ domain 2 (Mus musculus (Mouse)), Q6RHR9
Chain of GST-BAI-1 Associated Protein PDZ domain 2 (Mus musculus (Mouse)), Q6RHR9 (Q6RHR9 455-558): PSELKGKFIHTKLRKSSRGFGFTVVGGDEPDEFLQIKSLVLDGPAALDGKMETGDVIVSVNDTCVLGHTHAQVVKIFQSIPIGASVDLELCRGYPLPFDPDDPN

[12] = molecular target: T9, GST-INADL PDZ domain 8 (Homo sapiens …)
[13] = molecular target: T10, GST-MUPP1 PDZ domain 13 (Homo sapiens …)
[14] = molecular target: GST-PSD95 PDZ domains 1, 2, 3 (Homo sapiens), P78352
Chain of GST-PSD95 PDZ domains 1, 2, 3 (Homo sapiens), P78352 (P78352 62-395): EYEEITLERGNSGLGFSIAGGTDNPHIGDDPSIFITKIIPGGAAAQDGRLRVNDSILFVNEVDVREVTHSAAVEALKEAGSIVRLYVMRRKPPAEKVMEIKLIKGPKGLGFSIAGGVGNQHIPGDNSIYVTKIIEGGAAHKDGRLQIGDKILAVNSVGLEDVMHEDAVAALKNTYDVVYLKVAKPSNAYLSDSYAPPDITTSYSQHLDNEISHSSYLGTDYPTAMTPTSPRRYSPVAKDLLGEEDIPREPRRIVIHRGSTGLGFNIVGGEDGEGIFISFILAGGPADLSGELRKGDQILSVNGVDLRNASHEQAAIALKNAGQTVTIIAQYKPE

[15] = molecular target: T11, GST-Outer Membrane PDZ domain 1 (Homo …)
[16] = molecular target: GST-DLG1 PDZ domain 1 (Homo sapiens), Q12959
[17] = molecular target: T12, GST-PTPL1 PDZ domain 2 (Homo sapiens …)
[18] = molecular target: T13, GST-AIPC PDZ domain 1 (Homo sapiens …)
[19] = molecular target: T14, GST-KIAA1634 PDZ domain 2 (Homo sapiens …)
[20] = molecular target: T15, GST-DLG1 PDZ domain 2 (Homo sapiens), …
[21] = molecular target: T16, GST-NeDLG PDZ domain 2 (Rattus …)
[22] = molecular target: T17, GST-FLJ 10324 PDZ domain 1 [GST: P08515]
[23] = molecular target: GST-BAI-1 Associated Protein PDZ domain 5 (Homo sapiens (Human)), Q96QZ7
Chain of GST-BAI-1 Associated Protein PDZ domain 5 (Homo sapiens (Human)), Q96QZ7 (Q96QZ7 988-1099): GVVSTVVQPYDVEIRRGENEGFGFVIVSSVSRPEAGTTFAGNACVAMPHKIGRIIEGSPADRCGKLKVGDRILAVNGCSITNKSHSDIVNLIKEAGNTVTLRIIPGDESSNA

[24] = molecular target: T18, GST-NeDLG PDZ domains 1, 2, Q92796
[25] = molecular target: GST-KIAA1634 PDZ domain 1 (Homo sapiens (Human)), Q5TCQ9
Chain of GST-KIAA1634 PDZ domain 1 (Homo sapiens (Human)), Q5TCQ9 (Q5TCQ9 401-502): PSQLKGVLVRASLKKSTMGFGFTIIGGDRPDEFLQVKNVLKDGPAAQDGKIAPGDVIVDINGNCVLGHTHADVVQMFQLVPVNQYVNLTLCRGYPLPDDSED

[26] = molecular target: GST-PSD95 PDZ domain 1 (Homo sapiens)
[27] = molecular target: T19, GST-ZO-2 PDZ domain 2 (Homo sapiens …)
[28] = molecular target: T20, GST-ZO-1 PDZ domain 2 (Rattus …)
[29] = molecular target: GST-DLG1 PDZ domains 1, 2 (Homo sapiens), Q12959
[30] = molecular target: GST-KIAA0147 PDZ domain 1 (Homo sapiens (Human)), Q14160
Chain of GST-KIAA0147 PDZ domain 1 (Homo sapiens (Human)), Q14160 (Q14160 other isoform, or with tags, fused parts or gaps): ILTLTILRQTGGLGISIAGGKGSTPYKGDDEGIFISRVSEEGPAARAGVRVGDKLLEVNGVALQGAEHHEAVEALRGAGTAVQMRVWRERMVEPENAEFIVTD

[31] = molecular target: T21, GST-DLG2 PDZ domain 2 (Homo sapiens …)
[32] = molecular target: GST-PIST PDZ domain 1 (Mus musculus (Mouse)), Q8BH60
[33] = molecular target: T22, GST-HEMBA 1003117 PDZ domain 1 (Homo …)
[34] = molecular target: T23, GST-ZO-2 PDZ domain 1 (Homo sapiens …)
[35] = molecular target: T24, GST-AF6 PDZ domain 1 (Homo sapiens …)
[36] = molecular target: T25, GST-TIP1 PDZ domain 1 (Table 9 insert) …
[37] = molecular target: T26, GST-MUPP1 PDZ domain 11 (Homo sapiens …)
[38] = molecular target: T27, GST-ZO-1 PDZ domain 1 (Rattus …)
Also: key of the grades not given here.

| Binder | Classification [1] | Classification [2] | Classification [3] | Classification [4] | Classification [5] | Classification [8] | Classification [10] | Classification [14] | Classification [18] | Classification [20] | Classification [22] | Classification [24] | Classification [25] | Classification [29] | other results |
| --- | --- | --- | --- | --- | --- | --- | --- | --- | --- | --- | --- | --- | --- | --- | --- |
| NGGFAVDKSDTISFTQTSQF (modifications not checked) [glutamate transporter 3] | 1 A450 class | 1 A450 class | 1 A450 class | 1 A450 class | 1 A450 class | 1 A450 class |  |  |  |  |  |  |  |  | Classification [6]: 1 A450 class; Classification [7]: 1 A450 class; Classification [9]: 1 A450 class |
| EVIGYIEKPGVETLEDSVF (modifications not checked) [CDW125 (modified)] |  |  |  | 1 A450 class |  |  | 1 A450 class |  |  |  |  |  |  |  |  |
| ISGTPTSTMVHGMTSSSSVV (modifications not checked) [Clasp-2] |  |  | 1 A450 class |  | 1 A450 class | 1 A450 class |  | 2 A450 class | 1 A450 class | 1 A450 class | 1 A450 class | 2 A450 class | 1 A450 class |  | Classification [11]: 1 A450 class; Classification [12]: 1 A450 class; Classification [13]: 1 A450 class; Classification [15]: 1 A450 class; Classification [16]: 1 A450 class; Classification [17]: 1 A450 class; Classification [19]: 1 A450 class; Classification [21]: 1 A450 class; Classification [23]: 1 A450 class; Classification [26]: 1 A450 class |
| PSSRASSRASSRPRPDDLEI (modifications not checked) [CX43 (connexin 43)] |  |  |  |  |  |  |  |  |  |  |  |  |  |  | Classification [27]: 1 A450 class; Classification [28]: 2 A450 class |
| GGGGGSGGGGGSGIESVKI (modifications not checked) [GLUR2 (glutamate receptor 2-modified)] |  | 1 A450 class |  |  |  |  | 1 A450 class | 2 A450 class | 2 A450 class | 1 A450 class |  | 2 A450 class | 4 A450 class | 2 A450 class | Classification [30]: 1 A450 class; Classification [31]: 1 A450 class |
| GPVPGEPAKPKTSAHHATFV (modifications not checked) [RGS12 (regulator of G-protein signaling 12] | 1 A450 class |  |  |  |  |  |  |  |  |  | 1 A450 class |  |  | 1 A450 class | Classification [32]: 1 A450 class; Classification [33]: 1 A450 class; Classification [34]: 1 A450 class; Classification [35]: 1 A450 class; Classification [36]: 1 A450 class; Classification [37]: 1 A450 class; Classification [38]: 1 A450 class |
